Key:
[1] = target: T1, recombinant Frizzled receptor 7 (FZD7) cysteine-rich domain (CRD) fused to the Fc region of human IgG (human, UniProt O75084 33-185); assay: ELISA, 10ug/ml (200nM) Fab [cont'd]
Procedure: (§1) FIG. 2B is a table depicting the binding of purified Fabs to purified FZD7-Fc measured by ELISA. Fabs purified from 25 ml bacterial cultures were assayed for binding to FZD7-Fc fusion protein (R&D systems) and Fc protein. ELISA plates (384 well) were coated with 2 ug/ml of protein in PBS overnight at four degrees. Wells were blocked with 0.5% BSA/PBS for 1 hour at room temperature, washed three times with 0.05% Tween20/PBS (wash buffer), and then primary dilutions of Fabs in 0.5% BSA/0.05% Tween20/PBS (dilution buffer) were added at indicated concentrations. Fabs were incubated for 1 hour at room temperature, wells were washed six times, and anti-FLAG-HRP (Sigma) was added at 1:5000 in dilution buffer. Secondary antibody was incubated for 45 minutes at room temperature, and wells were washed six times and developed with TMB substrate with an acid stop. The absorbance at 450 nm was read. n.t.=not tested.

Fc control protein [2] = target: T2, Fc control protein; assay: ELISA, 10ug/ml (200nM) Fab [cont'd]
T2 construct: also called Fc protein; control Fc protein
Procedure: as §1

[3] = target: T3, FZD7 receptor expressed on cells (full-length) (UniProt O75084 33-574, limits assumed); assay: flow cytometry, 200 nM Fab, FZD7 over-expression line (MDA MB 231) [cont'd]
T3 construct: whole, on cells; MDA MB 231 cells may carry other Frizzled receptors too; also called full-length FZD7 receptor; endogenous receptor on MDA MB 231 cells
Procedure: (§2) FIG. 3 is a table depicting the binding of the purified Fabs to cells expressing FZD7 (flow cytometry). Small scale Fabs were assayed for binding to full-length FZD7 receptor to an over-expression line in MDA MB 231 cells. In parallel, Fabs were assayed for binding to endogenous receptor expressed on the MDA MB 231 cells. Cells were harvested using an EDTA solution, blocked in 2% FBS/PBS (stain buffer), and stained with 200 nM Fab for 30 min on ice. Cells were washed two times with stain buffer and incubated with anti-F(ab′)₂-APC secondary antibody (Jackson Immuno) at 1:1000 for 15 minutes on ice. All antibodies were diluted in stain buffer. Cells were washed three times with stain buffer and then fixed with 1% paraformaldehye for analysis by flow cytometry. […] The percent of the cell population within the positive gates is indicated.

[4] = target: T3, FZD7 receptor expressed on cells …; assay: flow cytometry, 200 nM Fab, MDA MB 231 [cont'd]
Procedure: as §2

[5] = target: T1, recombinant Frizzled receptor 7 (FZD7) …; assay: ELISA, 1ug/ml (20nM) Fab [cont'd]
Procedure: as §1

Fc control protein [6] = target: T2, Fc control protein; assay: ELISA, 1ug/ml (20nM) Fab [cont'd]
Procedure: as §1

| Binder | OD 450 [1] | OD 450 (Fc control protein [2]) | % population within the positive gate [3] [%] | % population within the positive gate [4] [%] | OD 450 [5] | OD 450 (Fc control protein [6]) |
| --- | --- | --- | --- | --- | --- | --- |
| F3 (Fab, selection round 3; also called Fzd7-R3-F3) light: DIQMTQSPSSLSASVGDRVTITCRASQSVSSAVAWYQQKPGKAPKLLIYSASSLYSGVPSRFSGSRSGTDFTLTISSLQPEDFATYYCQQGGHYWLITFGQGTKVEIKRTVAAPSVFIFPPSDSQLKSGTASVVCLLNNFYPREAKVQWKVDNALQSGNSQESVTEQDSKDSTYSLSSTLTLSKADYEKHKVYACEVTHQGLSSPVTKSFNRGECGGS heavy: EVQLVESGGGLVQPGGSLRLSCAASGFNISYSSMHWVRQAPGKGLEWVASISSSYGYTSYADSVKGRFTISADTSKNTAYLQMNSLRAEDTAVYYCARSYYGYYVGYGYSSWSGSGMDYWGQGTLVTVSSASTKGPSVFPLAPSSKSTSGGTAALGCLVKDYFPEPVTVSWNSGALTSGVHTFPAVLQSSGLYSLSSVVTVPSSSLGTQTYICNVNHKPSNTKVDKKVEPKSC | 2.97 | 0.07 | 82.5 | 1 | 2.35 | 0.06 |
| B2 (Fab, selection round 2; not the round 3 clone B2 (f33); also called Fzd7-R2-B2) light: DIQMTQSPSSLSASVGDRVTITCRASQSVSSAVAWYQQKPGKAPKLLIYSASSLYSGVPSRFSGSRSGTDFTLTISSLQPEDFATYYCQQAYAYLITFGQGTKVEIKRTVAAPSVFIFPPSDSQLKSGTASVVCLLNNFYPREAKVQWKVDNALQSGNSQESVTEQDSKDSTYSLSSTLTLSKADYEKHKVYACEVTHQGLSSPVTKSFNRGECGGS heavy: EVQLVESGGGLVQPGGSLRLSCAASGFNISYSSMHWVRQAPGKGLEWVASISSSYGYTYYADSVKGRFTISADTSKNTAYLQMNSLRAEDTAVYYCARSGGHFYYWYVAAAMDYWGQGTLVTVSSASTKGPSVFPLAPSSKSTSGGTAALGCLVKDYFPEPVTVSWNSGALTSGVHTFPAVLQSSGLYSLSSVVTVPSSSLGTQTYICNVNHKPSNTKVDKKVEPKSC | 3.18 | 0.13 | 86.8 | 7.1 | 3.19 | 0.06 |
| C1 (Fab, selection round 2; also called Fzd7-R2-C1) light: DIQMTQSPSSLSASVGDRVTITCRASQSVSSAVAWYQQKPGKAPKLLIYSASSLYSGVPSRFSGSRSGTDFTLTISSLQPEDFATYYCQQYGHYLITFGQGTKVEIKRTVAAPSVFIFPPSDSQLKSGTASVVCLLNNFYPREAKVQWKVDNALQSGNSQESVTEQDSKDSTYSLSSTLTLSKADYEKHKVYACEVTHQGLSSPVTKSFNRGECGGS heavy: EVQLVESGGGLVQPGGSLRLSCAASGFNLYSYSMHWVRQAPGKGLEWVASISSYYGSTYYADSVKGRFTISADTSKNTAYLQMNSLRAEDTAVYYCARAHGSSPGWYYAPYAGGGLDYWGQGTLVTVSSASTKGPSVFPLAPSSKSTSGGTAALGCLVKDYFPEPVTVSWNSGALTSGVHTFPAVLQSSGLYSLSSVVTVPSSSLGTQTYICNVNHKPSNTKVDKKVEPKSC | 3.19 | 0.14 | 87.3 | 66.5 | 3.15 | 0.06 |

Other lines, results leading:

| OD 450 [1] | OD 450 (Fc control protein [2]) | % population within the positive gate [3] [%] | % population within the positive gate [4] [%] | OD 450 [5] | OD 450 (Fc control protein [6]) | Binder |
| --- | --- | --- | --- | --- | --- | --- |
| 2.79 | 0.15 | 81 | 1.2 | 1.42 | 0.06 | D11 (Fab, selection round 3; also called Fzd7-R3-D11) light: DIQMTQSPSSLSASVGDRVTITCRASQSVSSAVAWYQQKPGKAPKLLIYSASSLYSGVPSRFSGSRSGTDFTLTISSLQPEDFATYYCQQYFPSGLITFGQGTKVEIKRTVAAPSVFIFPPSDSQLKSGTASVVCLLNNFYPREAKVQWKVDNALQSGNSQESVTEQDSKDSTYSLSSTLTLSKADYEKHKVYACEVTHQGLSSPVTKSFNRGECGGS heavy: EVQLVESGGGLVQPGGSLRLSCAASGFNISYSYMHWVRQAPGKGLEWVASISPSSGYTSYADSVKGRFTISADTSKNTAYLQMNSLRAEDTAVYYCARSVSWWYSWWSWGMDYWGQGTLVTVSSASTKGPSVFPLAPSSKSTSGGTAALGCLVKDYFPEPVTVSWNSGALTSGVHTFPAVLQSSGLYSLSSVVTVPSSSLGTQTYICNVNHKPSNTKVDKKVEPKSC |
| 3.2 | 0.1 | 87.1 | 96.6 | 3.09 | 0.07 | E9 (Fab, selection round 3; also called Fzd7-R3-E9) light: DIQMTQSPSSLSASVGDRVTITCRASQSVSSAVAWYQQKPGKAPKLLIYSASSLYSGVPSRFSGSRSGTDFTLTISSLQPEDFATYYCQQAVYHALITFGQGTKVEIKRTVAAPSVFIFPPSDSQLKSGTASVVCLLNNFYPREAKVQWKVDNALQSGNSQESVTEQDSKDSTYSLSSTLTLSKADYEKHKVYACEVTHQGLSSPVTKSFNRGECGGS heavy: EVQLVESGGGLVQPGGSLRLSCAASGFNIYYSSMHWVRQAPGKGLEWVASISSYSSSTYYADSVKGRFTISADTSKNTAYLQMNSLRAEDTAVYYCARSAVVHYPAGYWVYWGWYAFDYWGQGTLVTVSSASTKGPSVFPLAPSSKSTSGGTAALGCLVKDYFPEPVTVSWNSGALTSGVHTFPAVLQSSGLYSLSSVVTVPSSSLGTQTYICNVNHKPSNTKVDKKVEPKSC |
| 3.06 | 0.07 | 80.1 | 0.7 | 2.12 | 0.06 | B7 (Fab, selection round 3; also called Fzd7-R3-B7) light: DIQMTQSPSSLSASVGDRVTITCRASQSVSSAVAWYQQKPGKAPKLLIYSASSLYSGVPSRFSGSRSGTDFTLTISSLQPEDFATYYCQQAYYPLFTFGQGTKVEIKRTVAAPSVFIFPPSDSQLKSGTASVVCLLNNFYPREAKVQWKVDNALQSGNSQESVTEQDSKDSTYSLSSTLTLSKADYEKHKVYACEVTHQGLSSPVTKSFNRGECGGS heavy: EVQLVESGGGLVQPGGSLRLSCAASGFNISYSSMHWVRQAPGKGLEWVASIYPSYGYTSYADSVKGRFTISADTSKNTAYLQMNSLRAEDTAVYYCARVYWSSSYWAGGYWVGSAFDYWGQGTLVTVSSASTKGPSVFPLAPSSKSTSGGTAALGCLVKDYFPEPVTVSWNSGALTSGVHTFPAVLQSSGLYSLSSVVTVPSSSLGTQTYICNVNHKPSNTKVDKKVEPKSC |
| 3.15 | 0.07 | 86.9 | 11.9 | 2.87 | 0.05 | C12 (Fab, selection round 2; same four CDRs as Fzd7-R3-B2 (f33); also called Fzd7-R2-C12) light: DIQMTQSPSSLSASVGDRVTITCRASQSVSSAVAWYQQKPGKAPKLLIYSASSLYSGVPSRFSGSRSGTDFTLTISSLQPEDFATYYCQQSSYSLITFGQGTKVEIKRTVAAPSVFIFPPSDSQLKSGTASVVCLLNNFYPREAKVQWKVDNALQSGNSQESVTEQDSKDSTYSLSSTLTLSKADYEKHKVYACEVTHQGLSSPVTKSFNRGECGGS heavy: EVQLVESGGGLVQPGGSLRLSCAASGFNLSYSYMHWVRQAPGKGLEWVASIYSSYGYTSYADSVKGRFTISADTSKNTAYLQMNSLRAEDTAVYYCARYYGWAYYYSYFPAWAGGGIDYWGQGTLVTVSSASTKGPSVFPLAPSSKSTSGGTAALGCLVKDYFPEPVTVSWNSGALTSGVHTFPAVLQSSGLYSLSSVVTVPSSSLGTQTYICNVNHKPSNTKVDKKVEPKSC |

Reference: patent US20160194394A1 (GOVERNING COUNCIL OF THE UNIVERSITY OF TORONTO, published 2016)
